US20190194329A1 (AbbVie / Abbott, published 2019)

T1: His-tagged ECD of mouse 4-1BB (mouse, UniProt P20334 24-187)
T1 construct: also called murine 4-1BB; mu4-1BB; not shown: His tag
T1 sequence: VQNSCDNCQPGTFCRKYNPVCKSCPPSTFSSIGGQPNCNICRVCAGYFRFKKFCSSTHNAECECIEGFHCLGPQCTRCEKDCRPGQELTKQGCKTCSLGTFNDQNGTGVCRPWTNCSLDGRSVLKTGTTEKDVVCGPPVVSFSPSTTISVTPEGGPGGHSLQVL

T2: His-tagged ECD of cynomolgus monkey 4-1BB (cynomolgus monkey, UniProt Q07011 24-186 (human entry))
T2 construct: also called cynomolgus 4-1BB; cyno 4-1BB; not shown: His tag
T2 chain: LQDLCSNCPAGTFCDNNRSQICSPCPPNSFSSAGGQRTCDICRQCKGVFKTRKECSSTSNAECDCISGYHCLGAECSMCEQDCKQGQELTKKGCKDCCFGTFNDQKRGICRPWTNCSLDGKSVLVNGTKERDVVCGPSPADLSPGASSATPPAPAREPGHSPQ

B1: 20H4.9-hIgG4 (antibody, V domains shown)
VH: QVQLQQWGAGLLKPSETLSLTCAVYGGSFSGYYWSWIRQSPEKGLEWIGEINHGGYVTYNPSLESRVTISVDTSKNQFSLKLSSVTAADTAVYYCARDYGPGNYDWYFDLWGRGTLVTVSS
VL: EIVLTQSPATLSLSPGERATLSCRASQSVSSYLAWYQQKPGQAPRLLIYDASNRATGIPARFSGSGSGTDFTLTISSLEPEDFAVYYCQQRSNWPPALTFGGGTKVEIKR
B2: hu106-4-hIgG4 (antibody, V domains shown)
VH: EVQLVQSGAEVKKPGSSVKVSCKASGYTFTSYYIYWVRQAPGQGLEWIGNIWPGNGGTFYGEKFMGRATFTADTSTSTAYMELSSLRSEDTAVYYCARRPDYSGDDYFDYWGQGTLVTVSS
VL: SVELTQPPSVSVSPGQTARITCKLNSGNIGSYYVHWYQQKPGQAPVTMIYRDDKRPDGIPERFSGSSDSSSNSAFLTISGVQAEDEADYYCHSYDSTITPVFGGGTKLTVL
notes: Human IgG4 constant region with the S228P mutation; also called hu106.1x.3x
B3: hu106-7-hIgG4 (antibody, V domains shown)
VH: EVQLVESGGGLVQPGGSLRLSCAASGYTFTSYYIYWVRQAPGKGLEWIGNIWPGNGGTFYGEKFMGRATFSADTSKNTAYLQMNSLRAEDTAVYYCARRPDYSGDDYFDYWGQGTLVTVSS
VL: B2 VL
notes: Human IgG4 constant region with the S228P mutation; also called hu106.1y.3x
B4: hu106-1-hIgG1 (antibody, V domains shown)
VH: B2 VH
VL: NVMLTQPHSVSESPGKTVTISCKLNSGNIGSYYVHWYQQRPGSSPTTMIYRDDKRPDGVPDRFSGSIDSSSNSASLTISGLKTEDEADYYCHSYDSTITPVFGGGTKLTVLG
notes: 310 is written here; Human IgG1 constant region bearing L234A and L235A; also called hu106.1x.1x
B5: hu107-1-hIgG4 (antibody, V domains shown)
VH: EVQLVQSGAEVKKPGSSVKVSCKASDYTFNDYWVSWVRQAPGQGLEWIGEIYPNSGATNFNGKFRGRATLTVDNSASTAYMELSSLRSEDTAVYYCTREYTRDWFAYWGQGTLVTVSS
VL: DVVLTQSPLSLPVTLGQPASISCRSSQSLLDSDGNTYLYWFQQRPGQSPRRLIYLVSNLGSGVPDRFSGSGSGTDFTLKISRVEAEDVGVYYCMQPTHAPYTFGQGTKLEIK
notes: Human IgG4 constant region with the S228P mutation; also called hu107.1x.1x
B6: hu107-1-hIgG1 (antibody, V domains shown)
VH: B5 VH
VL: DVVLTQSPLSLPVTLGQPASISCRSSQSLLDSDGNTYLYWFQQRPGQSPRRLIYLVSNLGSGVPDRFSGSGSGTDFTLKISRVEAEDVGVYYCMQPTHAPYTFGQGTKLEIKR
notes: 312 is written here; Human IgG1 constant region bearing L234A and L235A; also called hu107.1x.1x
B7: hu107-3-hIgG4 (antibody, V domains shown)
VH: B5 VH
VL: DVQLTQSPSSLSASVGDRVTITCRSSQSLLDSDGNTYLYWFQQKPGKAPKRLIYLVSNLGSGVPSRFSGSGSGTDFTLTISSLQPEDFATYYCMQPTHAPYTFGQGTKVEIK
notes: Human IgG4 constant region with the S228P mutation; also called hu107.1x.1y
B8: MOR-7480.1-hIgG2 (antibody, V domains shown)
VH: EVQLVQSGAEVKKPGESLRISCKGSGYSFSTYWISWVRQMPGKGLEWMGKIYPGDSYTNYSPSFQGQVTISADKSISTAYLQWSSLKASDTAMYYCARGYGIFDYWGQGTLVTVSS
VL: SYELTQPPSVSVSPGQTASITCSGDNIGDQYAHWYQQKPGQSPVLVIYQDKNRPSGIPERFSGSNSGNTATLTISGTQAMDEADYYCATYTGFGSLAVFGGGTKLTVLG
B9: Mouse TABBY9 with mouse IgG1 constant (antibody, V domains shown)
VH: QVQLKQSGPGLVQPSQSLSITCTVSGFSLTSYGVHWVRQSPGKGLEWLGMIWSGGSTDYNAAFISRLSISKDNSKSQVFFKMNSLQADDTALYFCASYGGFYETMDYWGQGTSVTVSS
VL: DIQMTQTTSSLSASLGDRITISCRASQDISNYLNWYQRKPDGTVKLLIYYTSRLHSGVPSRFSGSGSGRDYSLTISNLEQEDIATYFCQQGNTLPYTFGGGTKLEIK
notes: Mouse IgG1; also called TABBY9-mIgG1

Legend:
[1] = target: T1, His-tagged ECD of mouse 4-1BB; experiment: SPR (Biacore), captured antibody, His-tagged ECD analyte
Description: (§1) The binding kinetics of the 4-1BB antibodies for target proteins were determined by using a Biacore T200 surface plasmon resonance system (BlAcore, GE Healthcare, Piscataway, N.J.). Polyclonal goat anti-human Fc antibody (Pierce 31125) was first immobilized to the biosensor surface using standard amine coupling reagents (N-ethyl-N′-dimethylamino-propylcarbodiimide, EDC; N-hydroxysuccinimide, NHS; and ethanolamine HCl, pH 8.5), followed by the capture of antibodies on parallel surfaces at a low flow rate of 10 μL/min. No capture of the antibody was made on the reference surface to serve as a negative control. Antigen (His-tagged ECD of 4-1BB derived from human, cynomolgus monkey, or mouse) was injected to all flow cells at a flow rate of 80 μL/min for three minutes to monitor association followed by a 10-20-minute flow of HBS-EP+running buffer (10 mM HEPES, 150 mM sodium chloride, 3mM EDTA, 0.05% Tween-20, pH 7.5) to monitor the dissociation phase. […] The surface was regenerated by two consecutive injections of 10 mM glycine (pH 1.5) at a flow rate of 60 μL/min at the end of each cycle. Binding data were fit to the 1:1 Langmuir model to extract binding constants from the BlAevaluate software. Double referencing was applied in each analysis to eliminate background responses from the reference surface and buffer only control.

[2] = target: T3, His-tagged ECD of human 4-1BB (human, UniProt Q07011 24-184); experiment: as above
T3 construct: also called hu4-1BB; 4-1BB ECD; not shown: His tag
Description: as §1

[3] = target: T2, His-tagged ECD of cynomolgus monkey …; experiment: as above
Description: as §1

[4] = target: T3, His-tagged ECD of human 4-1BB; experiment: SPR (Biacore)

Molecule	Kd [1] [nM]	koff [1] [s⁻¹]	kon [1] [M⁻¹ s⁻¹]	Kd [2] [nM]	koff [2] [s⁻¹]	kon [2] [M⁻¹ s⁻¹]	binding result [1]	Kd [3] [nM]	koff [3] [s⁻¹]	kon [3] [M⁻¹ s⁻¹]	binding result [4]
literature anti-4-1BB antibody 3H3	0.98	0.0057	5.8e+06								
literature anti-4-1BB antibody 1D8	3.9	0.008	2.1e+06								
B1				4.9	0.0021	420000	no binding (tested: antigen between 100 nM and 3.7 nM)				
B2	9.3	0.015	1.6e+06	200	0.042	210000		180	0.052	280000	
B3	17	0.037	2.2e+06	420	0.047	110000					
B4								170	0.1	620000	
B5	4		330000	0.58	8e-05	140000		0.22	5.2e-05		
B6								0.13	4e-05	310000	
B7	5.1	0.0016	320000	0.81	0.00011	130000		0.29	7e-05	240000	
B8							no binding (tested: antigen between 100 nM and 3.7 nM)				
B9											binds
